Assay results reported in the DeepSol protein solubility set.

Assay: soluble on expression in E. coli; label from the status in PepcDB or PDB records

Sequence	soluble on expression in E. coli
MGMDQSRLMSGAAGGALVLMGLKKRGVLGLLMTVGGGYLAYKAATGKDPVMEAAGLTGSAGAAKPIFVEHSIVIDRPAQQVYDYWRKLENLPQIMSHLESVTVLDDKRSRWVAKAPLGTHVEWEAEVVNDKPGERIGWHSLPGATVDNAGSVQFESLPDDKTRVHVALSYRPPAGPLGAAVAKLFGEEPSQQIAEDLQKFKATFEGLEHHHHHH	soluble
MGMIVFVRFNSSYGFPVEVDSDTSILQLKEVVAKRQGVPADQLRVIFAGKELPNHLTVQNCDLEQQSIVHIVQRPRRR	soluble
MGMKFLNKKGWHTGSLRNIETVWKAEQKQEAEQKKLEELRLQILQERERSEFRALQEQAGLIPRQERLEFLYDSGLAVGKGSASGSGVSFQKEEQPLAKSEAGSSASEKPDQSAPGALFEEKAQSANDSWRKLHSDPLLLIRQREQEALAKIKNNPVKMALIRKSVEEKGKGKDGDTKEHKKKHKRKSGKHQKQSSSRQRSDSEEDSGEENNGRKSHHQKTSGTHDRHYERPRSDLEDESKGRESRDRHYEKRRSELDDGHKRRERHDTHYERRRSEMDDESKRRESRDNHYERRRSDLDDESKRRESHDKHFERQRSDLDDEYKRRESQDKRRRSDIDDEPKRRDARPNEKYRNRSPKGGVERENLKSYGQEDKKRKAEDLDSGKPNEYQNRRRKGGSKLSEEERAARLKQMQMDAEVHEEQRWTRLKKADETDAVEADKNKVSTGKSFLDDANKSVYGVEKGGSSTIEESVRRRSYYSQRGTAAEGNAFRR	not soluble
MGNLFCCVLVKQSDVAVKERFGKFQKVLNPGLQFVPWVIGDYVAGTLTLRLQQLDVQCETKTKDNVFVTVVASIQYRVLADKASDAFYRLSNPTTQIKAYVFDVIRACVPKLNLDDVFEQKNEIAKSVEEELDKAMTAYGYEILQTLIIDIEPDQQVKRAMNEINAAARMRVAASEKAEAEKIIQIKRAEGEAESKYLSGLGIARQRQAIVDGLRDSVLGFAGNVPGTSAKDVLDMVMMTQYFDTMRDIGATSKSSAVFIPHGPGAVSDVAAQIRNGLLQANNAS	soluble
MGNQAGSKTKLVIIQGPTASGKSELAVRLAEACGGDVVNADSMQVYRGMDIGTAKPSPELVARVPHHLYDIVDPDVNFTAADYRREAGRVITEIHSRGKRPILVGGTGLYIKTLIGGLAPSPGADDTIRAELEEDARSEGAAALHDRLAQVDPAAAARLHPNDRVRIVRALEVFLMTGKPLSEFQEEHRFADEPYDCLKLGISVERDDLYRRINERVNRMFAEGFVEEVSGLLNAGYSPDLKAMGAIGYKEVCAYLAGTCSLDEARELVQRNTRRYAKRQLTWFRKDPAIKWVEYPANFDSISTIAMKFFGLEHHHHHH	not soluble
MGNRLSKIYTRTGDRGETGLAGGRRVPKSHPRIEAIGAVDELNSQLGLLLAELLEARGAHPGLEEIVQALAPVQHRLFDLGGELAMPEYRALDETEVARLESCIDRWNDELGPLKNFILPGGSRPVAQAHVCRSLARSAERRCQALDQEETLEGVGLRYLNRLSDLLFVAARAIARRQGVAEILWEAAAKPD	not soluble
MGNTSSERSGGEKTHRRESRSGKDGTRPKILMDSAEDGDLFQSDDAKEFLAWRQDQESDSKTPLEERPTVFRWKGPGKEIYLSGSFNNWATKIPLNKSHNNFVAIIDLPEGEHQYKFYVDGHWTLDPKEPVVTNKSGVVNNVIKVRKTDFEVFDALKTDSEKCADMSDLSSSPPGPYHQDPYSTKSEDKLRSPPILPPHLLQVLLNKDTGISCDPTLLPEPNHVMLNHLYALSIKDGVMVLSATHRYKKKYVTTLLYKPI	not soluble
MGNWITSTFLRFDLFQRHQPNRFLEYTRVQHSNQSPAYSVRTAAEIVAHQRMKPNHSNDSDTDFSSDDEGCPKMTPHEEQQMFEREQHIAFSGRCHIGDPESCTQLRNEINSRCGPRPSTSNNMEFILNRDLQKRGTSISNPRTVARVLNSHLPNQKRRVDRVATKSFCTQYIQNGTKIVVASQDEKIRFYQRNPDKSKYRSKYMKSDELRVDQCGWSILDTAISLNGDLIAYGTWKDAVFVGKLDFTERQNITWFPIDLNGEPGRDHCAVFCVKFSDSSEQIVCGTSQYSIHVFDVEQRRRIRTIVNAHEDDVNSVCFADLGSNLIYSAGDDGLVKVWDKRAWSDGDVEPVGVFAGHRDGVTHVDSRQDERYLLSNSKDQTIKVWDLRKFSNMSGVEATRACVQSQHWDYRWQPAPPGLCQPVAGDTSVMTLRGHSVLHTLVRANFSPESTGRRYIYTGCARGEVVVYDIMSGTVSRRLKGHTAVVRECDWHPTENEIVSSAWDGVTTVWTWDERQEGVIAPYDHPNISQFGDEDSCDELFQPVKKQCRRQRKTMSSRGHPCSSSSISQN	not soluble
MGPAQIWRLKFSNDKLTWEQECTFERSQYYDSIICACVYRFYHGAPPVVLFGTYSGRILQYELPPPTKFVRKSMKDVPKCGKPINLLINHGIYFIRQTGFNEIASITPFGLYILRENFHASKRLGKFGQFWLNRLQNRLLVKNPGSIDDFSAAEIRRLSIDSAQEQMRPRIGSTVSQLTFRYSDDDTLLLEKGGEKRRQTLGARDFQVSPRFYSRKIGKKIRFFLKFFREKLAGIENFRQIGKLAKMKISGKPANCQNFLPISNRGKLRKNFFFSENNDKF	not soluble
MGPDTTSERVSEDLMQAVTCLKRVMVGMKSNGTDYVQEQTPSNSTTVICTLVKITGALERCIESNKAMNDVLNGKMKCTTCGATSVGLLSDCHDSATSTTTTVSHRSSEEPPRRKPSAAGGDHDDEELECSSIESRSIRSVSSSVHTSAEDDETNQTMMVPTDVADVINAIVAGTNGSSNSNTTSSSKSPQEEEEEHDLVMKSILSTTTSTSNTKLELSEKLENPLQDTALLDQFLQASLLGQTPTVTPASEENEEDKEQNAVLTSFLQILFANQQAGNAILDAGSSENDGSTSSSQPSPPADPTASLDSLAMFESLLAESMNGNVLDANTSSADQKAAARKRKSTPMKVPKSENGAGYICPMDGCNKVFKEKGSVHRHFVTHIGMRFNCDKCKASYTQKHALMLHQKIHANPDAYQCRGCGTNYTTQNGLRLHRQRNPACMEVSNALEFNTSLNTSISEALSGPLSKNSSPTKQMVSAP	not soluble
MGPNHPCGYLPGRDARFTYVSPAYPLSPQSYRGLLEEGFRRSGNWVYRPCCIGCSACLPVRLPVHDFRLTRSHRRVIKRNADIDIRVSVARFDERQFQLYVRYLAARHPTDTPVSRDDYWSFVSSSWAQTRFVEFRSYSELIGVAVVDHVPGALSAVYTFFDPDAAERSPGSLAILWQILEARRLGREWLYLGYWIGGCRKMEYKARYRPLEALIANRWRRFQVDEPLTSSVLLEHHHHHH	soluble
MGPNPMKMYPIEGNKSVQFIKPILEKLENVEVGEYSYYDSKNGETFDKQILYHYPILNDKLKIGKFCSIGPGVTIIMNGANHRMDGSTYPFNLFGNGWEKHMPKLDQLPIKGDTIIGNDVWIGKDVVIMPGVKIGDGAIVAANSVVVKDIAPYMLAGGNPANEIKQRFDQDTINQLLDIKWWNWPIDIINENIDKILDNSIIREVIWKK	soluble
MGQEKLLFDQKYKIIKGEKKEKKKNQRANRREHQQKREIMRFKKSFTCIDMHTEGEAARIVTSGLPHIPGSNMAEKKAYLQENMDYLRRGIMLEPRGHDDMFGAFLFDPIEEGADLGIVFMDTGGYLNMCGHNSIAAVTAAVETGIVSVPAKATNVPVVLDTPAGLVRGTAHLQSGTESEVSNASIINVPSFLYQQDVVVVLPKPYGEVRVDIAFGGNFFAIVPAEQLGIDISVQNLSRLQEAGELLRTEINRSVKVQHPQLPHINTVDCVEIYGPPTNPEANYKNVVIFGNRQADRSPCGTGTSAKMATLYAKGQLRIGETFVYESILGSLFQGRVLGEERIPGVKVPVTKDAEEGMLVVTAEITGKAFIMGFNTMLFDPTDPFKNGFTLKQYIWSSSVDKLAAALEHHHHHH	soluble
MGQMFGVACIDEQSGIVGQAWNNNSVRYISIDEDAVITIQSGPVVGKVAVSNDKTLAYGATINGANTVYVYKKSQAWVPSRLSDISSGTDVWAVALNGDNQWLYYVTANGRLGRIEVDNPTHNEILFEHNDFSGGPFAYIAYSAFEDCFYVTTDKNKILKVWVKEDGTHAYEQINQNNTGTTDGFLADEAKFQYLRGLTIDEDGNIFVCQGDNSHVIRKIAYDENMEKRYVTTVLGTSTVHGTDDGSPDIALFNGPQDISYDGNGGYWIAMRYEPALRKYSIELEHHHHHH	not soluble
MGQRGQVCQGRCMAEDQQSSQISDTVPALRRAVRILDLVAGSPRDLTAAELTRILDLPKSSAHGLLAVMTELDLLARSADGTLRIGPHSLRWANGFLSHLDIVSTFNDHLAQRHDLDPYTVTLTVREGGEVVYIGCRNSAQPLGHTFRIGMRLPAPFTATGKILLSDLGPGELRMLFSQFPQPLTSRSVAGLSQLEEELALTRARGYSIDDGQIREGMLCIGAAIRDYSGAASAGIAISLIRSEASDEKIASLGEELRTTANALSEKLGYRSQKD	not soluble
MGQRVDKEVTPRFVELGQVSAIRTEPEIAYRSNQGVTRQRQQTKVFKLVSTYDKVAVKNAIRAAYRQVFERDLEPYIINSEFTALESKLSNNEINVKEFIEGLGTSELYMKEFYAPYPNTKVIEMGTKHFLGRAPLNQKEIQQYNQILASQGLKAFIGAMVNGMEYLQTFGEDTVPYRRFPTLPAANFPNTERLYNKLTKQDKELEHHHHHH	soluble
MGQSWGYEGIAKRSLCTHKWLYNLNLHSINLFLPIESKMSAQASRQKKSDQEQRAADQALLNAAIEDNAMEQDENFTVIDKLESSGISSGDISKLKEAGYYTYESLAFTTRRELRNVKGISDQKAEKIMKEAMKFVQMGFTTGAEVHVKRSQLVQIRTGSASLDRLLGGGIETGSITEVYGEYRTGKTQLCHSLAVLCQLPIDMGGGEGKCMYIDTNATFRPERIIAIAQRYNMDSAHVLENIAVARAYNSEHLMALIIRAGAMMSESRYAVVIVDCATAHFRNEYTGRGDLAERQMKLSAFLKCLAKLADEYGVAVIITNQVVAQVDGGASMFQADAKKPIGGHIIAHMSTTRLYLRKGKGENRVAKMVQSPNLPEAEATYSITNHGIEDARED	soluble
MGQVSAASTILINAEPTATLDALADYETVRPKILSPHYSEYQVLEGGKGRGTVAKWRLQATQSRVRDVQVNVDVAGHTVIEKDMNSSMVTNWTVAPAGPGSSVTVKTTWTGAGGVKGFFEKTFAPLGLKKIQAEVLSNLKTELEGDA	soluble
MGRFPSWVLVADWPAPPGVMVLSTLRGGPGVSVAPFDRLNLGNCSGVAGDAPVCVERNRSRLVEMLGLPSVPHWLRQVHGVEVLRVDALLQSIARVVEPTADAAVTSVVGAVLAILTADCLPVVLAAVDGSEIGVVHAGWRGLADDVLGRTVAALRTSPEYLQAWLGPAAGPQAYEVGVDVYAAFVERDSGAACAFSVTRPGHWYVDLYALARQRLMRAGLSAVSIYGGGLCTISDPQRFFSHRRDRRSGRFATLAWIGC	soluble
MGRIKQGLDYFPLSTDFMHDRIVRRVMKREGDSAFTVLIYIMSYLYSGEGYYVRADTDFCDELSDQLFSTDNDTVRRVIRLFLEYGLFDSALYERYSILTSEDVQRQYLFITKRRSRHHICPDYCLLPEEKTTDEQPDTVAATGENVAVSPNIATASRDTATKTALIKRKEKEKKENIFPNPPFAKGGDEEEGSEGEKVAEGAGGGMREECDQRSATRKRNLTQEDIDRMQVPPDGCPRNFSGLLENLRLFRVPPAEQYAIVLKSNYGEIGGDIWKGFSVIRGSGGKIKLPGHYLLSVLNK	not soluble
